Here are results for 2 molecules from US20110002929A1 (Ablynx, published 2011).

Experiment [1] addresses T1, human RANK-L, full length, membrane-bound, expressed on HEK293T cells (human, UniProt O14788 1-317).
T1 construct: whole, on cells; also called hRANK-L
T1 sequence (looked up): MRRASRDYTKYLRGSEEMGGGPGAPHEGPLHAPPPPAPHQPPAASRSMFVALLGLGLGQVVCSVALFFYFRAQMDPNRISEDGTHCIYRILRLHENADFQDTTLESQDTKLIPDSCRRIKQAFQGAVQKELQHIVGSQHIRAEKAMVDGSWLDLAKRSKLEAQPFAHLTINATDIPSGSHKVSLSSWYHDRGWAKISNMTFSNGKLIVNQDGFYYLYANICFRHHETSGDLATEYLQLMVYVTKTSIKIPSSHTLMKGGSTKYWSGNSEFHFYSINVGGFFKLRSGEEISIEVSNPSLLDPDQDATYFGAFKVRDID
In words: FACS, HEK293T with human RANK-L, 80 pM Nanobody. How it is done:
(§1) Human embryonic kidney cells (HEK293T) were grown in Dulbecco's modified Eagles's medium supplemented with 10% fetal bovine serum (FBS), […] L-glutamine, 0.4 mM sodium pyruvate. […] After 48 hours, transfected cells were subjected to FACS analysis. […] Then cells were washed three times with FACS buffer. Bound Nanobodies were detected by subsequent incubations of a primary mouse anti Myc antibody (30 min at 4° C. (2 μg/ml)) and a second incubation with goat anti mouse-Phycoerythrin (PE) (Jackson Laboratories) for another 30 min at 4° C. Finally, after washing, the cells were resuspended in PBS+10% FBS+TO-PRO®-3 (5 nM) (Molecular Probes®, Invitrogen, Merelbeke, Belgium) and cell surface fluorescence expressed as mean PE fluorescence, was measured using flow cytometry.
On the technique in general: Flow cytometry measures light scatter and fluorescence of single cells or particles in a stream.

In experiment [2] the target is T2, human RANK-L (human, UniProt O14788 140-317, limits assumed).
T2 construct: Soluble protein, used coated, biotinylated or labelled in ELISA, AlphaScreen, FMAT and Biacore; also called hRANK-L; soluble human RANK-L
T2 sequence (looked up): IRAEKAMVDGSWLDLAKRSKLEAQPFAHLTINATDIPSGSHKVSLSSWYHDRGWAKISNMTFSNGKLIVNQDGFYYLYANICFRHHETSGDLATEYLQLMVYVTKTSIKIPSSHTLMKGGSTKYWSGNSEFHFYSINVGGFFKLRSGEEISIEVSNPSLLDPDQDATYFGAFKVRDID
As to the kind of experiment: AlphaScreen, biotin-hRANK-L / RANK-huFc beads. For orientation: Bead proximity is the source of the signal in Alpha formats.

Experiment [3] has as its target T1, human RANK-L, full length, …. In words: FACS, HEK293T with human RANK-L, 400 pM Nanobody. How it is done:
as §1

In experiment [4] the target is T3, cynomolgus RANK-L, full length, membrane-bound, expressed on HEK293T cells (cynomolgus monkey, UniProt A0A7N9DBU4 1-317).
T3 construct: whole, on cells; also called cyno RANK-L
T3 sequence: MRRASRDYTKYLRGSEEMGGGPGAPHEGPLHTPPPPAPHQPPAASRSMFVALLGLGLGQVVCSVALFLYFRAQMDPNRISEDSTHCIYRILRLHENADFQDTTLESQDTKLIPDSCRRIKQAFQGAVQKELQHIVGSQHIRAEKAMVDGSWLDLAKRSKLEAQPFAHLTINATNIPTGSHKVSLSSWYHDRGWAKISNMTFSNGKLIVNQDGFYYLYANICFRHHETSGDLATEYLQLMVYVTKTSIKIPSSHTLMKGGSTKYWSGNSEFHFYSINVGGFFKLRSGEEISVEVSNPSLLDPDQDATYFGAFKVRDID
In words: FACS, HEK293T with cynomolgus RANK-L, 400 pM Nanobody. How it is done:
as §1

In experiment [5] the target is T4, CD40 ligand (UniProt P29965 113-261, limits assumed).
T4 sequence (looked up): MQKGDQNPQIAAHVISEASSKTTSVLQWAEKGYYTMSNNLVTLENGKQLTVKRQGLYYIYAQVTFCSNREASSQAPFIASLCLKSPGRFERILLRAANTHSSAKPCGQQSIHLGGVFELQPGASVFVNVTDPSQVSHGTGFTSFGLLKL
In words: competition ELISA on RANK-L-coated plates, 1 nM Nanobody preincubated with the ligand. In general terms: ELISA stands for enzyme-linked immunosorbent assay.

For experiment [6], the target named is T5, TRAIL (UniProt P50591 114-281, limits assumed).
T5 construct: also called tumor necrosis factor-related apoptosis inducing ligand
Described as above.

The target of experiment [7] is T6, TNFα (UniProt P01375 77-233).
T6 construct: also called TNF-alpha
The experiment is described as above.

For experiment [8], the target named is T2, human RANK-L. In words: AlphaScreen, biotin-hRANK-L / RANK-huFc beads. This is another data set of the same source.
Experiment [9] addresses T1, human RANK-L, full length, …. As to the kind of experiment: FACS, HEK293T with human RANK-L, 3.2 pM Nanobody. Here is the method:
as §1

Experiment [10] shares this target. As to the kind of experiment: FACS, HEK293T with human RANK-L, 2000 pM Nanobody. Here is the method:
as §1

The target of experiment [11] is T2, human RANK-L. As to the kind of experiment: AlphaScreen, biotin-hRANK-L / RANK-huFc beads. This is another data set of the same source.
In experiment [12] the target is T2, human RANK-L. As to the kind of experiment: FMAT, ALEXA647-hRANK-L / RANK on HEK293T cells.
Experiment [13] has as its target T2, human RANK-L. As to the kind of experiment: ELISA (ED50), biotin-hRANK-L on neutravidin. In a few lines:
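Nanobodies at 500 nM to 160 pM in 1% casein/PBS incubated 1 h at room temperature; binding detected via anti-myc then anti-mouse-HRP with TMB, OD 450 nm.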

T6 sequence (P01375 77-233 limits assumed): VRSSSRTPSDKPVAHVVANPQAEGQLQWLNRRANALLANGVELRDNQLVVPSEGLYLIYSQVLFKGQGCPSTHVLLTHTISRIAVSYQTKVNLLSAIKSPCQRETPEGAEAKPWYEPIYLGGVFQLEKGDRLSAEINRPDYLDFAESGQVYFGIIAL
T5 sequence (P50591 114-281 limits assumed): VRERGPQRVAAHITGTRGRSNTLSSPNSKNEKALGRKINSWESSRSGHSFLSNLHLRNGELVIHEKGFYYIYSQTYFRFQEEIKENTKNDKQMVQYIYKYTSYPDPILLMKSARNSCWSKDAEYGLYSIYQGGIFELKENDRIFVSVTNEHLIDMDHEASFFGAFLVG

B1: RANKL18 (VHH, not shown: small tags and cut ends)
VHH: EVQLVESGGGLVQAGGSLRLSCAASGRTFSRSAMGWFRQAPGKEREFVGFITGSGGTTYYGESVKGRFTISRDNAQNPVYLQMNSLKPEDTAVYYCGVYRRTYISSTYSESSEYDYWGQGTQVTVSS
As for B1, the PE mean fluorescence in [1] stood at 649; in [3], 2330; in experiment [4], 3490; in experiment [9], 105; in experiment [10], 7630. The IC50 in experiment [2] was found to be 0.292 nM; in experiment [8], 0.253 nM; in [11], 0.187 nM; in [12], 0.253 nM. The binding result in [5], in experiment [6] and in experiment [7] was “no binding (tested: approximately 100 nM)” throughout. This molecule also returned an EC50 in experiment [13] of 0.242 nM.

B2: RANKL13 (VHH, not shown: small tags and cut ends)
VHH: EVQLVESGGGLVQAGGSLRLSCAASGRTFRSYPMGWFRQAPGKEREFVASITGSGGSTYYADSVKGRFTISRDNAKNTVYLQMNSLRPEDTAVYSCAAYIRPDTYLSRDYRKYDYWGQGTQVTVSS
Regarding B2, the PE mean fluorescence worked out at 1530 in experiment [1]; 5220 in experiment [3]; 4110 in [4]; 220 in experiment [9]; 13900 in experiment [10]. Also, the IC50 was determined as 0.174 nM in [2], 0.12 nM in [8], 0.147 nM in [11] and 0.264 nM in [12]. The binding result in [5], in [6] and in experiment [7] was “no binding (tested: approximately 100 nM)” in each case. Moreover, in [13], the EC50 was 0.226 nM.

By IC50 is commonly meant the concentration that gives 50% inhibition. The low end stands for greater potency in that assay, the high end for weaker potency in that assay. The term EC50 denotes the concentration needed to bring the measured effect to its halfway point. Low readings indicate an effect from little substance, high ones a need for much substance.
